The text below walks through data of paper PMC11078644, “Nesprin-2 is a novel scaffold protein for telethonin and FHL-2 in the cardiomyocyte sarcomere” (The Journal of Biological Chemistry, 2024).

B1: HA-tagged telethonin WT, purified recombinant protein, without PKD pre-treatment [not stated] / GST-nesprin-2 SR51-53 (amino acids 6018-6354) [human] (parent)
chain 1: MATSELSCEVSEENCERREAFWAEWKDLTLSTRPEEGCSLHEEDTQRHETYHQQGQCQVLVQRSPWLMMRMGILGRGLQEYQLPYQRVLPLPIFTPAKMGATKEEREDTPIQLQELLALETALGGQCVDRQEVAEITKQLPPVVPVSKPGALRRSLSRSMSQEAQRG
chain 2: KETFAFIQQLDKNMSNLRTWLARIESELSKPVVYDVCDDQEIQKRLAEQQDLQRDIEQHSAGVESVFNICDVLLHDSDACANETECDSIQQTTRSLDRRWRNICAMSMERRMKIEETWRLWQKFLDDYSRFEDWLKSAERTAACPNSSEVLYTSAKEELKRFEAFQRQIHERLTQLELINKQYRRLARENRTDTASRLKQMVHEGNQRWDNLQRRVTAVLRRLRHFTNQREEFEGTRESILVWLTEMDLQLTNVEHFSESDADDKMRQLNGFQQEITLNTNKIDQLIVFGEQLIQKSEPLDAVLIEDELEELHRYCQEVFGRVSRFHRRLTSCTPGL

The variants in this experiment derive from B1. Briefly: GST pull-down, densitometry. The following applies: with GST-nesprin-2 SR51-53 (amino acids 6018-6354) [human]; without PKD pre-treatment (P-); n = 5; parent: 1; read off a plot.
On to chain 1 MATSELSCEVSEENCERREAFWAEWKDLTLSTRPEEGCSLHEEDTQRHETYHQQGQCQVLVQRSPWLMMRMGILGRGLQEYQLPYQRVLPLPIFTPAKMGATKEEREDTPIQLQELLALETALGGQCVDRQEVAEITKQLPPVVPVSKPGALRRSLARSMAQEAQRG [chain 1 S157A S161A], for which the ratio to parent is 1.1.
